Laboratory results as given in IntAct's records for PubMed 38029384.

B1: Coiled-coil domain-containing protein 124 (Homo sapiens), Q96CT7 (parent)
chain: MPKKFQGENTKSAAARARRAEAKAAADAKKQKELEDAYWKDDDKHVMRKEQRKEEKEKRRLDQLERKKETQRLLEEEDSKLKGGKAPRVATSSKVTRAQIEDTLRRDHQLREAPDTAEKAKSHLEVPLEENVNRRVLEEGSVEARTIEDAIAVLSVAEEAADRHPERRMRAAFTAFEEAQLPRLKQENPNMRLSQLKQLLKKEWLRSPDNPMNQRAVPFNAPK

How the values were obtained:
npm_human NPM1, P06748 [1] = variants of: B1; settings: with npm_human NPM1, P06748
npm_human NPM1, P06748 [2] = variants of: B1; settings: with npm_human NPM1, P06748; remark: listed apart in the source

Sequence of npm_human NPM1, P06748 (P06748 whole entry): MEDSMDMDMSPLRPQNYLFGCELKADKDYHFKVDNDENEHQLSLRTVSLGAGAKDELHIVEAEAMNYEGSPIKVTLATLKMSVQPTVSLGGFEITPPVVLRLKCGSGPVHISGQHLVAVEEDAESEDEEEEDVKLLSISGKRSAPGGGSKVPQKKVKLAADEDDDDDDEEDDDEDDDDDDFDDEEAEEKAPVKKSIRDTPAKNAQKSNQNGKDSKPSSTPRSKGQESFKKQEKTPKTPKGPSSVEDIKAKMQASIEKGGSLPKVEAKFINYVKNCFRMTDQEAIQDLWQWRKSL

| effect of a mutation on the interaction (npm_human NPM1, P06748 [1]) | effect of a mutation on the interaction (npm_human NPM1, P06748 [2]) | Variant |
| --- | --- | --- |
| decreasing interaction strength | with no effect | MPKKFQGENTKSAAARARRAEAKAAADAKKQKELEDAYWKDDDKHVMRKEQRKEEKEKRRLDQLERKKETQRLLEEEDSKLKGGKAPRVATSSKVTRAQIEDTLRRDHQLREAPDTAEKAKAHLEVPLEENVNRRVLEEGAVEARTIEDAIAVLSVAEEAADRHPERRMRAAFTAFEEAQLPRLKQENPNMRLSQLKQLLKKEWLRSPDNPMNQRAVPFNAPK [S122A;S141A] |
| decreasing interaction strength | with no effect | MPKKFQGENTKSAAARARRAEAKAAADAKKQKELEDAYWKDDDKHVMRKEQRKEEKEKRRLDQLERKKETQRLLEEEDSKLKGGKAPRVATSSKVTRAQIEDTLRRDHQLREAPDTAEKAKSHLEVPLEENVNRRVLEEGAVEARTIEDAIAVLSVAEEAADRHPERRMRAAFTAFEEAQLPRLKQENPNMRLSQLKQLLKKEWLRSPDNPMNQRAVPFNAPK [S141A] |
| decreasing interaction strength | disrupting interaction strength | MPKKFQGENTKSAAARARRAEAKAAADAKKQKELEDAYWKDDDKHVMRKEQRKEEKEKRRLDQLERKKETQRLLEEEDSKLKGGKAPRVATSSKVTRAQIEDTLRRDHQLREAPDTAEKAKAHLEVPLEENVNRRVLEEGSVEARTIEDAIAVLSVAEEAADRHPERRMRAAFTAFEEAQLPRLKQENPNMRLSQLKQLLKKEWLRSPDNPMNQRAVPFNAPK [S122A] |
